Reference: patent CN112552406A (WUJIANG NOVOPROTEIN SCIENT INC, dated 2021)

How the values were obtained:
[1] = molecular target: T1, 人CD73 on SK-OV-3细胞 (人卵巢腺癌细胞) (human, UniProt P21589 27-549); assay: flow cytometry on SK-OV-3 cells, Anti-hFC-APC detection
T1 construct: whole, on cells; CD73-positive human cell line; also called SK-OV-3细胞上CD73; 人CD73阳性细胞
T1 sequence (looked up): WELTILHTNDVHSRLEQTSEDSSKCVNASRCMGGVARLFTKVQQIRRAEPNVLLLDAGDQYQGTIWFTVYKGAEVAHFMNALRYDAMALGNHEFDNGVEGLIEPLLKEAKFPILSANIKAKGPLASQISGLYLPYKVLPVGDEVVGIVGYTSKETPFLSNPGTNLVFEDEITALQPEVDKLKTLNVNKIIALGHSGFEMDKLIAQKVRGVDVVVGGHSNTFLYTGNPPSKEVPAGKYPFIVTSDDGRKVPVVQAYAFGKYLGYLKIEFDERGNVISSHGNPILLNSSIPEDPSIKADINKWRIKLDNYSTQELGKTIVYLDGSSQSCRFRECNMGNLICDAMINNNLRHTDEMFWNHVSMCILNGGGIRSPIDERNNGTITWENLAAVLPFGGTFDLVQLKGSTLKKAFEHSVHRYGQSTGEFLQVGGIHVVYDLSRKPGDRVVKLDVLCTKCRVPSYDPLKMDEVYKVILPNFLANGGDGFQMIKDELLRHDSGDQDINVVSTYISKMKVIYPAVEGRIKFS

[2] = molecular target: T2, 猴CD73全长 on CHOK1-cynoCD73细胞 (猴 (cyno), UniProt A0A2K5V5U7 27-549); assay: flow cytometry on CHOK1-cynoCD73 cells, Anti-hFC-APC detection
T2 construct: whole, on cells; also called 猴CD73阳性细胞
T2 sequence: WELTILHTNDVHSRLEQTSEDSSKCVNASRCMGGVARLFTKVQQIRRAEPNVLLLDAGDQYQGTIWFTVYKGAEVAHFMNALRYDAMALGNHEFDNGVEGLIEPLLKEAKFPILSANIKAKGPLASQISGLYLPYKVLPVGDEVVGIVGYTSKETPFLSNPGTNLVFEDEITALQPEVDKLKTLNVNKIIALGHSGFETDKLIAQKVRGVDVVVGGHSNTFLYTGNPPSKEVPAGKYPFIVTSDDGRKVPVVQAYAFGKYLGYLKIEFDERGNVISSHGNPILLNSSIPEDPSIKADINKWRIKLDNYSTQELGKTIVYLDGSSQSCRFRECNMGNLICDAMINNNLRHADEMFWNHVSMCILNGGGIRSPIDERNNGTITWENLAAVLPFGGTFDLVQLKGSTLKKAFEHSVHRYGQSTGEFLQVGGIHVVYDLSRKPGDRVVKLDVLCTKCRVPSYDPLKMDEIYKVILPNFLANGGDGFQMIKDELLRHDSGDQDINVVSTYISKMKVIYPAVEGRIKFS

[3] = molecular target: T1, 人CD73 on SK-OV-3细胞 (人卵巢腺癌细胞); assay: cell-based or functional assay
[4] = molecular target: T2, 猴CD73全长 on CHOK1-cynoCD73细胞; assay: cell-based or functional assay
重组猴CD73蛋白 = molecular target: T3, 重组猴CD73蛋白 (猴 (monkey; cyno per the cell line name), UniProt A0A2K5V5U7 27-547); assay: ELISA, recombinant monkey CD73 coated at 3μg/ml
T3 sequence: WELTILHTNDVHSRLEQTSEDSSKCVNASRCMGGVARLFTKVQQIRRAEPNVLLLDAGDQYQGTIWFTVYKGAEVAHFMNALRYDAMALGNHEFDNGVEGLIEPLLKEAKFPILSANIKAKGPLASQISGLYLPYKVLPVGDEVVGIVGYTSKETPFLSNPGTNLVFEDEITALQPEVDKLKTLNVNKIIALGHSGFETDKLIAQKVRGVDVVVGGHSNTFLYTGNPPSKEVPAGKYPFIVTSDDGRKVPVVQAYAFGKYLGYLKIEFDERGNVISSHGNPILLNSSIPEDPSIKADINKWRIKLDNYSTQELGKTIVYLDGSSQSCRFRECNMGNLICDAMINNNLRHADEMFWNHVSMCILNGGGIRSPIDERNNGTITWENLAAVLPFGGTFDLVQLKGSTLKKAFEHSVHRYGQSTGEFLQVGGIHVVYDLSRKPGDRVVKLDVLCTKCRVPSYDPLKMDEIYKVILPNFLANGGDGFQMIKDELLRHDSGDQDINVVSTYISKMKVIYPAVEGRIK

重组人CD73蛋白 = molecular target: T4, 重组人CD73蛋白 (human, UniProt P21589 27-547); assay: Biacore (SPR), CQ137 immobilised, CD73 protein 2.5nM-40nM
T4 construct: also called rhCD73; 重组hCD73蛋白
T4 sequence (looked up): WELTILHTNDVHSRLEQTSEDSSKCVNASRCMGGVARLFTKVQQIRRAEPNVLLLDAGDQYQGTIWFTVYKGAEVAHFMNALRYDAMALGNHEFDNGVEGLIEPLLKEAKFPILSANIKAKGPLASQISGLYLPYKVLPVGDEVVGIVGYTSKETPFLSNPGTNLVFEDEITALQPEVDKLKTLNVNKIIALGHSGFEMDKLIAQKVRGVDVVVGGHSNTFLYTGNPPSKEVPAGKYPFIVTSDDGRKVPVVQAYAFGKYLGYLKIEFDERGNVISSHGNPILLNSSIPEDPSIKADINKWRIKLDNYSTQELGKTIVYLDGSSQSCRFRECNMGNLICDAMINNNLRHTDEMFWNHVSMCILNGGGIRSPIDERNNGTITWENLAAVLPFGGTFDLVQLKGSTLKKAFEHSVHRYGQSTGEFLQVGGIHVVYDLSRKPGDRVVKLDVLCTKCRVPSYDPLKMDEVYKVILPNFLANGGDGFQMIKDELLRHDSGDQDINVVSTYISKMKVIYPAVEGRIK

[5] = molecular target: T1, 人CD73 on SK-OV-3细胞 (人卵巢腺癌细胞); assay: flow cytometry on SK-OV-3 cells

B1: MEDI-9447 (antibody, V domains shown)
VH: EVQLLESGGGLVQPGGSLRLSCAASGFTFSSYAYSWVRQAPGKGLEWVSAISGSGGRTYYADSVKGRFTISRDNSKNTLYLQMNSLRAEDTAVYYCARLGYGRVDEWGRGTLVTVSS
VL: QSVLTQPPSASGTPGQRVTISCSGSLSNIGRNPVNWYQQLPGTAPKLLIYLDNLRLSGVPDRFSGSKSGTSASLAISGLQSEDEADYYCATWDDSHPGWTFGGGTKLTVLG
Work on B1 yielded an EC50 [1] of 9.63 ng/mL and an EC50 [2] of 4.12 ng/mL.

B2: CQ137抗体蛋白 (人鼠嵌合的抗CD73全长抗体) (antibody, human IgG1, kappa, V domains shown)
VH: EVQLQQSGPELVKPGASVKISCKASGYSFTGYYIHWVKQSHVKSLEWIGRINPYNGATTYNQNFKDKASLTVDKSSSTAYMELHSLTSEDSAVYYCARFHYGAPDYWGQGTTLTVSS
VL: DILMTQSPSSMYASLGERVTITCKASQDINTYLTWFQQKPGKSPKTLIYRANILVDGVPSRFSGSGSGQDYSLTISSLEFEDMGIYYCLQYDEFPLTFGAGTKLELKR
For B2, the “IC50, SK-OV-3细胞上CD73酶活抑制 (CellTiter-Glo)” value [3] was 371 ng/mL, the “IC50, CHOK1-cynoCD73细胞上CD73酶活抑制 (CellTiter-Glo)” value [4] was 990 ng/mL and the EC50 (重组猴CD73蛋白) was 217 ng/mL. For the same binder, the EC50 [1] was 0.588 ng/mL, the Kd (重组人CD73蛋白) was 0.0865 nM and the EC50 [2] was 0.0999 ng/mL.

B3: 人源化CQ137单抗(137-2) (antibody, V domains shown)
VH: QVQLVQSGAEVKKPGASVKVSCKASGYSFTGYYIHWVRQAPGQGLEWMGRINPYNGATTYNQNFKDRVTMTVDKSTSTAYMELRSLRSDDTAVYYCARFHYGAPDYWGQGTLVTVSS
VL: DIQMTQSPSSLSASVGDRVTITCKASQDINTYLTWFQQKPGKAPKSLIYRANILVDGVPSRFSGSGSGTDFTLTISSLQPEDFATYYCLQYDEFPLTFGGGTKVEIKR
notes: also called hCQ137
B3: binds [5].

B4: 人源化CQ137单抗(137-1) (antibody, V domains shown)
VH: QVQLVQSGAEVKKPGASVKVSCKASGYTFTGYYIHWVRQAPGQGLEWMGRINPYNGATTYNQNFKDRVTMTVDKSTSTAYMELRSLRSDDTAVYYCARFHYGAPDYWGQGTLVTVSS
VL: DIQMTQSPSSLSASVGDRVTITCKASQDINTYLTWFQQKPGKAPKTLIYRANILVDGVPSRFSGSGSGQDYTLTISSLQPEDFATYYCLQYDEFPLTFGGGTKVEIKR
notes: also called hCQ137
B4: binds [5].

B5: 人源化CQ137单抗(137-3) (antibody, V domains shown)
VH: QVQLVQSGAEVKKPGSSVKVSCKASGYSFTGYYIHWVRQAPGQGLEWMGRINPYNGATTYNQNFKDRVTITVDKSTSTAYMELSSLRSEDTAVYYCARFHYGAPDYWGQGTLVTVSS
VL: DIQMTQSPSSLSASVGDRVTITCKASQDINTYLTWYQQKPGKAPKTLIYRANILVDGVPSRFSGSGSGTDFTLTISSLQPEDFATYYCLQYDEFPLTFGGGTKVEIKR
notes: also called hCQ137
B5: binds [5].
